Test results taken from publication PMC5390017.

Experiments:
[1] = molecular target: tau phosphopeptide 194-212 phosphorylated at S202 and T205 (human) (UniProt P10636); assay: ITC; MicroCal Auto iTC200, in solution; peptide ~40 µM, mAb 200 µM, 20 steps of 2 µl; fitted to a single set of sites, mAb:tau peptide = 1:2
[2] = molecular target: tau phosphopeptide of the C-terminal domain phosphorylated at S422 (cognate peptide of CBTAU-22.1) (human); assay: as above
Sequence of tau phosphopeptide of the C-terminal domain phosphorylated at S422 (cognate peptide of CBTAU-22.1) (human) (P10636 721-746): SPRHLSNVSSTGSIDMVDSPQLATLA

Row | Kd [1] [µM] | Kd [2] [µM] | Binder
1 | 5.8 |  | CBTAU-7.1 (human IgG1) (antibody, V domains shown) VH: QVQLVESGGGLVQPGGSLRLSCAASGFTFSSYWMHWVRQAPGKGLVWVSRINSDGSDTNYADSVKGRFTFSRDNAKNTLYLQMTSLRAEDTAIYYCTRGRSYGFFDYWGQGALVTVSS VL: DIVMTQSPDTLSLSPGERATLSCRASQIISSNYLAWYQQQPGQAPRLLIYGASSRATGIPDRFSGSGSATDFTLTISRLEPEDFAVYYCQQYGTSPRTFGQGTKLEIK
2 |  | 32.7 | CBTAU-22.1 (human IgG1) (antibody, V domains shown) VH: QVQLVQSGAEVKKPGAPVKVSCETSGYRFSDYNVHWVRQAPGQGPEWIGRISPNSGGTKYAQKFQGRVTMTRDMSMNTAYMELSGLRSDDTAVYYCVRGHCDGTTCSRAYWGQGTLVTVSS VL: DVVMTQSPLSLPVTPGEPASISCRSSQSLLHRSGHKYLHWYLQRPGQSPQVLIYLGSNRASGVPDRFSGSGSGTDFTLKISRVEAEDVGLYYCMQTLQTPWTFGQGTKVEIK
